Values quoted from earlier work in PMC6008586, “Analysis of transition state mimicry by tight binding aminothiazoline inhibitors provides insight into catalysis by human O-GlcNAcase” (Chemical Science, 2016).

Biological target: Asp174 (UniProt position 174, FALLFDDIDHN)
Test: kinetics
Details: the article refers the ionisation state to the resting enzyme; free-enzyme versus enzyme-substrate complex is not specified

Substance: O-GlcNAcase (OGA, protein O-GlcNAc hydrolase, GH84) (Homo sapiens)
- pKa: 5.2
